Source: patent publication US20200262877A1, “ION CHANNEL-BINDING PEPTIDES AND METHODS OF USE THEREOF” (priority 2017, published 2020)

Experiments:
α4β2 = biological target: T1, α4β2 (Homo sapiens, UniProt P17787+P43681); experiment: Ion channel panel (IonWorks Barracuda): α4β2; assay type: cell-based; details: 100% = no change, <100% = inhibition
T1 construct: host or cells: HEK293 or CHO
Outline: (§1)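 Peptides were tested in duplicate at final 20 μM and 200 nM, with concentration set by amino acid analysis, in HEPES-buffered saline. They were applied for at least 5 min to HEK293 or CHO cells transfected with each channel. Currents were expressed as % inhibition, 1-(Ipeptide/Icontrol)×100, or % activation, Ipeptide/Icontrol×100, against a channel-matched reference compound.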

Kir2.1 = biological target: T2, Kir2.1 (Homo sapiens, UniProt P63252); experiment: Ion channel panel (IonWorks Barracuda): Kir2.1; assay type: cell-based; details: 100% = no change, <100% = inhibition
T2 construct: host or cells: HEK293 or CHO
Outline: as §1

Kv1.3 = biological target: T3, Kv1.3 (Homo sapiens, UniProt P22001); experiment: cell-based; assay type: cell-based; details: 100% = no change, <100% = inhibition
T3 construct: host or cells: HEK293 or CHO
Outline: as §1

Kv1.2 = biological target: T4, Kv1.2 (Homo sapiens, UniProt P16389); experiment: cell-based; assay type: cell-based; details: 100% = no change, <100% = inhibition
T4 construct: host or cells: HEK293 or CHO
Outline: as §1

Kv1.1 = biological target: T5, Kv1.1 (Homo sapiens, UniProt Q09470); experiment: cell-based; assay type: cell-based; details: 100% = no change, <100% = inhibition
T5 construct: host or cells: HEK293 or CHO
Outline: as §1

GABA = experiment: Ion channel panel (IonWorks Barracuda): GABA; assay type: cell-based; details: 100% = no change, <100% = inhibition
Outline: as §1

5HT3a = biological target: T6, 5HT3a (Homo sapiens, UniProt P46098); experiment: Ion channel panel (IonWorks Barracuda): 5HT3a; assay type: cell-based
T6 construct: host or cells: HEK293 or CHO
T6 sequence (P46098 whole entry, looked up): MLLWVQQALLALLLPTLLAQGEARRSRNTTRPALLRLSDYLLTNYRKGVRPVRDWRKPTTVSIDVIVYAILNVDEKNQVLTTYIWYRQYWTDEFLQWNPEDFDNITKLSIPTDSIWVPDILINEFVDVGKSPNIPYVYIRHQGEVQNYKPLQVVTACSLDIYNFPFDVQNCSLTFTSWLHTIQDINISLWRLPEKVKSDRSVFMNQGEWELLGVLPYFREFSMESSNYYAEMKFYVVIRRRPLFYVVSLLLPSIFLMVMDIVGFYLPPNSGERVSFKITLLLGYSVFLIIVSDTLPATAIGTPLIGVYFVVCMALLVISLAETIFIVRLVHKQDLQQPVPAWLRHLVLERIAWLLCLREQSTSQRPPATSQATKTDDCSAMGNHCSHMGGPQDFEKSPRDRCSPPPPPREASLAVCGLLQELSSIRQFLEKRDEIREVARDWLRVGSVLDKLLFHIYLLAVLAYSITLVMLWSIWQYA
Outline: as §1

Kv2.1 = biological target: T7, Kv2.1 (Homo sapiens, UniProt Q14721); experiment: cell-based; details: 100% = no change, <100% = inhibition
T7 construct: host or cells: HEK293 or CHO
Outline: as §1

Cav2.1 = biological target: T8, Cav2.1 (Homo sapiens, UniProt O00555); experiment: cell-based; details: 100% = no change, <100% = inhibition
T8 construct: host or cells: HEK293 or CHO
Outline: as §1

Cav2.2 = biological target: T9, Cav2.2 (Homo sapiens, UniProt Q00975); experiment: cell-based; details: 100% = no change, <100% = inhibition
T9 construct: host or cells: HEK293 or CHO
Outline: as §1

TRPA1 = biological target: T10, TRPA1 (Homo sapiens, UniProt O75762); experiment: Ion channel panel (IonWorks Barracuda): TRPA1; assay type: cell-based; details: 100% = no change, <100% = inhibition
T10 construct: host or cells: HEK293 or CHO
Outline: as §1

hERG = hERG (Homo sapiens, UniProt Q12809); experiment: in vitro; details: 100% = no change, <100% = inhibition
Outline: as §1

Nav1.5 = Nav1.5 (Homo sapiens, UniProt Q14524); experiment: in vitro; details: 100% = no change; for Activity of Nav1.5 with peptide, expressed as a percentage of the reference compound: peptide at 0.2 μM; for Activity of Nav1.5 with peptide (percentage of the reference compound): peptide at 20 μM
Nav1.5, sequence (Q14524 whole entry): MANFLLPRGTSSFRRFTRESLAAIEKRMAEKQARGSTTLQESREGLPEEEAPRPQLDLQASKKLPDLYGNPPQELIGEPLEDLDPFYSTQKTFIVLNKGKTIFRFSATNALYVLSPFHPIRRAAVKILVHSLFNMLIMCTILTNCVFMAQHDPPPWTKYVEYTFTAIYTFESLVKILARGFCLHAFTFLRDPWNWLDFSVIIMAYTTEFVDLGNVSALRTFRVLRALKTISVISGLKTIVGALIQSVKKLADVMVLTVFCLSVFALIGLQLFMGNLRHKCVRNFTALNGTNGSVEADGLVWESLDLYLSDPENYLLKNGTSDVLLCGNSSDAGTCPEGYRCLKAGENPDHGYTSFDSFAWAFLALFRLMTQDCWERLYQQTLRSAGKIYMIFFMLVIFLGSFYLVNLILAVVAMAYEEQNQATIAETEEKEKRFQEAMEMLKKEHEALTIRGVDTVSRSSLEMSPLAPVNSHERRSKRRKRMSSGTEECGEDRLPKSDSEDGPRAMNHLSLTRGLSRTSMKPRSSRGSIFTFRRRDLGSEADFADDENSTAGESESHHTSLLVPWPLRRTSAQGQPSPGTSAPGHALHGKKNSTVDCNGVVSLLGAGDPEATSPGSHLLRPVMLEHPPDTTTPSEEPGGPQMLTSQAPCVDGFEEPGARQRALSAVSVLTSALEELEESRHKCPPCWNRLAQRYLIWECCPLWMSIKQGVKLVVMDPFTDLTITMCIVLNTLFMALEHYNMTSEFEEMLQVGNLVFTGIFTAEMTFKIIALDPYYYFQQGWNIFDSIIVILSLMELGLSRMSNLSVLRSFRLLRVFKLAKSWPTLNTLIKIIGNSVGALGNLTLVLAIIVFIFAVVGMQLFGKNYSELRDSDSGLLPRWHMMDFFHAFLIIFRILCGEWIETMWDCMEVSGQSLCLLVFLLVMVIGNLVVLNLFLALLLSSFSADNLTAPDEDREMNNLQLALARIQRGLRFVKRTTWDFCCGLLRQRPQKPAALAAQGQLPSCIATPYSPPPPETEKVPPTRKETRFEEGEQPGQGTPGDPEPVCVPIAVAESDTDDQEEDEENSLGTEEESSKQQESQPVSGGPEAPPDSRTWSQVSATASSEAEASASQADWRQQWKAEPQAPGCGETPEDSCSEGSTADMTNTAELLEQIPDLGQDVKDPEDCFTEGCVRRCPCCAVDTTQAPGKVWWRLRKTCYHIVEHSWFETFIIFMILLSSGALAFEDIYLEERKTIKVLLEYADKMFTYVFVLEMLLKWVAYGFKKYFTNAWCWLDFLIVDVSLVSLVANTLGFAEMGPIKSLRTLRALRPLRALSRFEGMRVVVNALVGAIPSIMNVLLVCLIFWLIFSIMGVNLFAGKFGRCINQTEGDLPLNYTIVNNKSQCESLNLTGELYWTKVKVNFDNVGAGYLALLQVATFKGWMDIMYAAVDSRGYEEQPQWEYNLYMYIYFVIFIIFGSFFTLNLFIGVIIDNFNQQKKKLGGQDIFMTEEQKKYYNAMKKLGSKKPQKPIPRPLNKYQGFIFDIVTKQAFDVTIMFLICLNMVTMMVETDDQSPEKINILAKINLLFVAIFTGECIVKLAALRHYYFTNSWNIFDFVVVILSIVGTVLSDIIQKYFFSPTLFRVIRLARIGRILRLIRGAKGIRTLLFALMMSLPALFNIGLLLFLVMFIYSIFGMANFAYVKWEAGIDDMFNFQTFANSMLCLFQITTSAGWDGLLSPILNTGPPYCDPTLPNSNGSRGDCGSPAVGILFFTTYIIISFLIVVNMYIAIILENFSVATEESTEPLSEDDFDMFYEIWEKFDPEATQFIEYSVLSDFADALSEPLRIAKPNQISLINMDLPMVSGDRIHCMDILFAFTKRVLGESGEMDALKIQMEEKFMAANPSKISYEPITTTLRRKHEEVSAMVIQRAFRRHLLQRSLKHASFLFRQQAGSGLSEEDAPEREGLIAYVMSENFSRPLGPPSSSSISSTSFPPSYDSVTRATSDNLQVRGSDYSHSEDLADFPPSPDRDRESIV
Outline: as §1

Nav1.7 = biological target: T11, Nav1.7 (Homo sapiens, UniProt Q15858); experiment: cell-based; assay type: cell-based; details: 100% = no change; for Activity of Nav1.7 with peptide, expressed as a percentage of the reference compound: peptide at 0.2 μM; for Activity of Nav1.7 with peptide (percentage of the reference compound): peptide at 20 μM
T11 construct: host or cells: HEK293 or CHO
T11 sequence (Q15858 whole entry): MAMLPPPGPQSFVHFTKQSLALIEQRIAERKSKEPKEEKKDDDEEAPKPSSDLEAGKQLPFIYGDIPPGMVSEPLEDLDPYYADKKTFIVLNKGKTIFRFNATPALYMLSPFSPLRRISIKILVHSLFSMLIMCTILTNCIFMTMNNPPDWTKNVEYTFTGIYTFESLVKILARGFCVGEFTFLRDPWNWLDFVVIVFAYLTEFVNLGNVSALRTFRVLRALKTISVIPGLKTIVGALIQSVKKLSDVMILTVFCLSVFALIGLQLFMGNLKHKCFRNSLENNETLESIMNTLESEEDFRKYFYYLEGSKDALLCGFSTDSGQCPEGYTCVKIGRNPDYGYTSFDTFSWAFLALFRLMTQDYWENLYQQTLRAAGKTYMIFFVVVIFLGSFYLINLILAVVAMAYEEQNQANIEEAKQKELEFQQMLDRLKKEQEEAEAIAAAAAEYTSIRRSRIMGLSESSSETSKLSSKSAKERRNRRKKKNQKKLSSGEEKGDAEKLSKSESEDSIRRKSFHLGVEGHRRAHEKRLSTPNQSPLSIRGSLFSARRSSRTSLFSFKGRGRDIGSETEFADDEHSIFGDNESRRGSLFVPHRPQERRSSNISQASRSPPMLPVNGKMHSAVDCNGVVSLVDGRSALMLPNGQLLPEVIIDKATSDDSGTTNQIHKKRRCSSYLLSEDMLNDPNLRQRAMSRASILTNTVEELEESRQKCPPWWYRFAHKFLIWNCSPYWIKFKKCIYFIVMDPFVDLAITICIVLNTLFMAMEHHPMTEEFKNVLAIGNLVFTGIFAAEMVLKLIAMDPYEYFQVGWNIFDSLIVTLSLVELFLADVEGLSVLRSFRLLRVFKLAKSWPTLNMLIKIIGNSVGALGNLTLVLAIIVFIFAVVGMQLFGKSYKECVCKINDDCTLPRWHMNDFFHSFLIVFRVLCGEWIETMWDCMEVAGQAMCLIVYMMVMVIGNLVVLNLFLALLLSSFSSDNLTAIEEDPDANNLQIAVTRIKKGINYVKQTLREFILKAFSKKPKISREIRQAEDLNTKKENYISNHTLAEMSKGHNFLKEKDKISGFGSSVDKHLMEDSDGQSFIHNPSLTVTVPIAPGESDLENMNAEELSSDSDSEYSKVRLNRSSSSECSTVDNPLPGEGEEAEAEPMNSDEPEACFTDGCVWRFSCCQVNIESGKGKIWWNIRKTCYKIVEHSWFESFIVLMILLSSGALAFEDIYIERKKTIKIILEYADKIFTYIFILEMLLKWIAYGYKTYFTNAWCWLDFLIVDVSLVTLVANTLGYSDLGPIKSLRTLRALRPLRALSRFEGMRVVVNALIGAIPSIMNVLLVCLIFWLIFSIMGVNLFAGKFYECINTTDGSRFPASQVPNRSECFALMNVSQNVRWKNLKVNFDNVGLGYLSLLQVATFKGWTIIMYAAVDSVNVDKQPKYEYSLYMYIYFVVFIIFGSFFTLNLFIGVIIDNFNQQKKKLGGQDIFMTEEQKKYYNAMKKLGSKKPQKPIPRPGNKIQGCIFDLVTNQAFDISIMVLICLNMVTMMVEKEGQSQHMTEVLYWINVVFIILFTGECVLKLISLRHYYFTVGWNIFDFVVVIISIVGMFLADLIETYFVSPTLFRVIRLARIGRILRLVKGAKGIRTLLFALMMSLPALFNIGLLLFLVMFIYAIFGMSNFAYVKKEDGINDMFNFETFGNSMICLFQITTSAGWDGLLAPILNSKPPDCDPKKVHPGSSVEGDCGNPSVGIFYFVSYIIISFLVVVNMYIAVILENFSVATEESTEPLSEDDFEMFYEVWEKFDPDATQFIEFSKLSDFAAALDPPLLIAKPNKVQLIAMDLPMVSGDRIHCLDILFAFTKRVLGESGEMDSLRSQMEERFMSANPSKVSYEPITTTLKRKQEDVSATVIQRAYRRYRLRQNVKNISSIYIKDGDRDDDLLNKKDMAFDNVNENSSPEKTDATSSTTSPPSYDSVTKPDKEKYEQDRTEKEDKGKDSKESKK

α3β4 = biological target: T12, α3β4 (Homo sapiens, UniProt P30926+P32297); experiment: Ion channel panel (IonWorks Barracuda): α3β4; assay type: cell-based; details: 100% = no change, <100% = inhibition
T12 construct: host or cells: HEK293 or CHO
T12 sequence (P30926 22-498): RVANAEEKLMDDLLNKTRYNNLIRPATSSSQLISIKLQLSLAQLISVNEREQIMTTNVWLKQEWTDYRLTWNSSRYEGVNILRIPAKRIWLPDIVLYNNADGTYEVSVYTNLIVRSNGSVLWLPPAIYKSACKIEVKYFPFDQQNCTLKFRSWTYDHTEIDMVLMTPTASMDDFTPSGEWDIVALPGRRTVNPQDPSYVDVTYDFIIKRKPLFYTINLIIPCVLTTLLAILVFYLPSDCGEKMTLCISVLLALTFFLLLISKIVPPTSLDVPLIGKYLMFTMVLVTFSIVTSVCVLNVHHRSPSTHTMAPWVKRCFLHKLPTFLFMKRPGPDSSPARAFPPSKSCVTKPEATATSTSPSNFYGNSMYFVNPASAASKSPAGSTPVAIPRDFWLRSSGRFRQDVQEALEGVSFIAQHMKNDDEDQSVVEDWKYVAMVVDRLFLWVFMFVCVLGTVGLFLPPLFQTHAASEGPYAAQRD
T12 sequence (P32297 32-505): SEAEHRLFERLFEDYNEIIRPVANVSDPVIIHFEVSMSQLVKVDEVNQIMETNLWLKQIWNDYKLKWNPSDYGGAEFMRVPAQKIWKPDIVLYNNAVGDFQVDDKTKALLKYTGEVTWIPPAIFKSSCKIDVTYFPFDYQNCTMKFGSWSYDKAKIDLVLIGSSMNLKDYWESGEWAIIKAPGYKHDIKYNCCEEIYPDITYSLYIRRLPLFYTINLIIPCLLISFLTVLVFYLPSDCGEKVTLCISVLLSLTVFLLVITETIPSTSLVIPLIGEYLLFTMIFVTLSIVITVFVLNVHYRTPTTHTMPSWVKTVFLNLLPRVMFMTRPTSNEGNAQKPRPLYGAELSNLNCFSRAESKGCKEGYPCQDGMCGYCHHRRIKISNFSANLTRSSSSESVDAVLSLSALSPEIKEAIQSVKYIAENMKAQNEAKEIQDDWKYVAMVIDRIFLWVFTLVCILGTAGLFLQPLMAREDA
Outline: as §1

NR2B = biological target: T13, NR2B (Homo sapiens, UniProt Q13224); experiment: Ion channel panel (IonWorks Barracuda): NR2B; assay type: cell-based; details: 100% = no change, <100% = inhibition
T13 construct: host or cells: HEK293 or CHO
Outline: as §1

TRPV1 = biological target: T14, TRPV1 (Homo sapiens, UniProt Q8NER1); experiment: Ion channel panel (IonWorks Barracuda): TRPV1; assay type: cell-based; details: 100% = no change, <100% = inhibition
T14 construct: host or cells: HEK293 or CHO
Outline: as §1

NR2A = biological target: T15, NR2A (Homo sapiens, UniProt Q12879); experiment: Ion channel panel (IonWorks Barracuda): NR2A; assay type: cell-based; details: 100% = no change, <100% = inhibition
T15 construct: host or cells: HEK293 or CHO
Outline: as §1

[1] = first of two Nav1.5 columns (probably TP1)
[2] = second of two Nav1.5 columns (probably TP2)
[3] = first of two Nav1.7 columns (probably TP1)
[4] = second of two Nav1.7 columns (probably TP2)

“9 (GSGCFGYKCDYYKGCCSGYVCSPTWKWCVRPGPGR) [compound 9]” was tested, and the “Activity of a4b2 with peptide, expressed as a percentage of the reference compound” value (α4β2; peptide at 0.2 μM) was 96%, the “Activity of a4b2 with peptide (percentage of the reference compound)” value (α4β2; peptide at 20 μM) was 81% and the “Activity of Kir2.1 with peptide, expressed as a percentage of the reference compound” value (Kir2.1; peptide at 0.2 μM) was 105%. For the same substance, the “Activity of Kir2.1 with peptide (percentage of the reference compound)” value (Kir2.1; peptide at 20 μM) was 103%, the “Activity of Kv1.3 with peptide, expressed as a percentage of the reference compound” value (Kv1.3; peptide at 0.2 μM) was 107% and the “Activity of Kv1.3 with peptide (percentage of the reference compound)” value (Kv1.3; peptide at 20 μM) was 89%. For the same substance, the “Activity of Kv1.2 with peptide, expressed as a percentage of the reference compound” value (Kv1.2; peptide at 0.2 μM) was 120%, the “Activity of Kv1.2 with peptide (percentage of the reference compound)” value (Kv1.2; peptide at 20 μM) was 104% and the “Activity of Kv1.1 with peptide, expressed as a percentage of the reference compound” value (Kv1.1; peptide at 0.2 μM) was 103%. The “Activity of Kv1.1 with peptide (percentage of the reference compound)” value (Kv1.1; peptide at 20 μM) was 97%, the “Activity of GABA with peptide, expressed as a percentage of the reference compound” value (GABA; peptide at 0.2 μM) was 99% and the “Activity of GABA with peptide (percentage of the reference compound)” value (GABA; peptide at 20 μM) was 98%. For the same substance, the “Activity of 5HT3a with peptide (percentage of the reference compound)” value (5HT3a) was 73%, the “Activity of 5HT3a with peptide, expressed as a percentage of the reference compound” value (5HT3a) was 107% and the “Activity of Kv2.1 with peptide, expressed as a percentage of the reference compound” value (Kv2.1; peptide at 0.2 μM) was 112%. The “Activity of Kv2.1 with peptide (percentage of the reference compound)” value (Kv2.1; peptide at 20 μM) was 99%, the “Activity of Cav2.1 with peptide, expressed as a percentage of the reference compound” value (Cav2.1; peptide at 0.2 μM) was 111% and the “Activity of Cav2.1 with peptide (percentage of the reference compound)” value (Cav2.1; peptide at 20 μM) was 108%. For the same substance, the “Activity of Cav2.2 with peptide, expressed as a percentage of the reference compound” value (Cav2.2; peptide at 0.2 μM) was 109%, the “Activity of Cav2.2 with peptide (percentage of the reference compound)” value (Cav2.2; peptide at 20 μM) was 102% and the “Activity of TRPA1 with peptide, expressed as a percentage of the reference compound” value (TRPA1; peptide at 0.2 μM) was 131%. For the same substance, the “Activity of TRPA1 with peptide (percentage of the reference compound)” value (TRPA1; peptide at 20 μM) was 112%, the “Activity of hERG with peptide, expressed as a percentage of the reference compound” value (hERG; peptide at 0.2 μM) was 104% and the “Activity of hERG with peptide (percentage of the reference compound)” value (hERG; peptide at 20 μM) was 98%. The “Activity of Nav1.5 with peptide, expressed as a percentage of the reference compound” value (Nav1.5; [1]) was 104%, the “Activity of Nav1.5 with peptide, expressed as a percentage of the reference compound” value (Nav1.5; [2]) was 103% and the “Activity of Nav1.5 with peptide (percentage of the reference compound)” value (Nav1.5; [1]) was 109%. For the same substance, the “Activity of Nav1.5 with peptide (percentage of the reference compound)” value (Nav1.5; [2]) was 110%, the “Activity of Nav1.7 with peptide, expressed as a percentage of the reference compound” value (Nav1.7; [3]) was 108% and the “Activity of Nav1.7 with peptide, expressed as a percentage of the reference compound” value (Nav1.7; [4]) was 110%. For the same substance, the “Activity of Nav1.7 with peptide (percentage of the reference compound)” value (Nav1.7; [3]) was 94%, the “Activity of Nav1.7 with peptide (percentage of the reference compound)” value (Nav1.7; [4]) was 114% and the “Activity of a3b4 with peptide, expressed as a percentage of the reference compound” value (α3β4; peptide at 0.2 μM) was 105%. The “Activity of a3b4 with peptide (percentage of the reference compound)” value (α3β4; peptide at 20 μM) was 103%, the “Activity of NR2B with peptide, expressed as a percentage of the reference compound” value (NR2B; peptide at 0.2 μM) was 77% and the “Activity of NR2B with peptide (percentage of the reference compound)” value (NR2B; peptide at 20 μM) was 85%. The “Activity of TRPV1 with peptide, expressed as a percentage of the reference compound” value (TRPV1; peptide at 0.2 μM) was 112%, the “Activity of TRPV1 with peptide (percentage of the reference compound)” value (TRPV1; peptide at 20 μM) was 79% and the “Activity of NR2A with peptide, expressed as a percentage of the reference compound” value (NR2A; peptide at 0.2 μM) was 89%. For the same substance, the “Activity of NR2A with peptide (percentage of the reference compound)” value (NR2A; peptide at 20 μM) was 87%.
